The test system of data set [1] is HeLa Kyoto. Put plainly: solubility change mitosis vs G1/S (difference of NP-40 vs SDS log2 ratios) (log2 ratio difference); higher = more soluble in mitosis.
Data set [2] concerns HeLa Kyoto. As to the kind of experiment: thermal stability score vs G1/S (z-score of summed log2 fold changes over temperatures); higher = more thermally stable than in G1/S.
Data set [3] has as its system HeLa Kyoto. Put plainly: solubility in G1/S (NP-40 vs SDS abundance) (log2 ratio); higher = more soluble. The conditions noted are these: cell cycle stage: G1/S.
The test system of data set [4] is HeLa Kyoto. As to the kind of experiment: melting temperature (median over replicates), in situ; higher = more thermally stable.
[5] abbreviates: cell cycle stage: early G1 (4.5 h after nocodazole release).
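Throughout, for melting temperature (median over replicates), in situ: HeLa Kyoto cells synchronized by double thymidine or nocodazole block, proteins quantified by TMT10plex mass spectrometry, three independent biological replicates.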
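Throughout, for solubility change mitosis vs G1/S (difference of NP-40 vs SDS log2 ratios): synchronized HeLa Kyoto cells (double thymidine block for G1/S, nocodazole release for mitosis), protein amounts in NP-40 versus SDS lysates quantified by mass spectrometry, three biological replicates.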
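Throughout, for solubility in G1/S (NP-40 vs SDS abundance): HeLa Kyoto cells arrested at G1/S by double thymidine block, proteins quantified by TMT10plex mass spectrometry in mild NP-40 versus SDS extracts, three biological replicates.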
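Throughout, for thermal stability score vs G1/S (z-score of summed log2 fold changes over temperatures): synchronized HeLa Kyoto cells, proteins quantified by TMT10plex mass spectrometry, three biological replicates, mitosis taken 0.5 h after nocodazole release, G1/S directly after double thymidine block.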

Sequence of DENND4C (chain, as listed by the source): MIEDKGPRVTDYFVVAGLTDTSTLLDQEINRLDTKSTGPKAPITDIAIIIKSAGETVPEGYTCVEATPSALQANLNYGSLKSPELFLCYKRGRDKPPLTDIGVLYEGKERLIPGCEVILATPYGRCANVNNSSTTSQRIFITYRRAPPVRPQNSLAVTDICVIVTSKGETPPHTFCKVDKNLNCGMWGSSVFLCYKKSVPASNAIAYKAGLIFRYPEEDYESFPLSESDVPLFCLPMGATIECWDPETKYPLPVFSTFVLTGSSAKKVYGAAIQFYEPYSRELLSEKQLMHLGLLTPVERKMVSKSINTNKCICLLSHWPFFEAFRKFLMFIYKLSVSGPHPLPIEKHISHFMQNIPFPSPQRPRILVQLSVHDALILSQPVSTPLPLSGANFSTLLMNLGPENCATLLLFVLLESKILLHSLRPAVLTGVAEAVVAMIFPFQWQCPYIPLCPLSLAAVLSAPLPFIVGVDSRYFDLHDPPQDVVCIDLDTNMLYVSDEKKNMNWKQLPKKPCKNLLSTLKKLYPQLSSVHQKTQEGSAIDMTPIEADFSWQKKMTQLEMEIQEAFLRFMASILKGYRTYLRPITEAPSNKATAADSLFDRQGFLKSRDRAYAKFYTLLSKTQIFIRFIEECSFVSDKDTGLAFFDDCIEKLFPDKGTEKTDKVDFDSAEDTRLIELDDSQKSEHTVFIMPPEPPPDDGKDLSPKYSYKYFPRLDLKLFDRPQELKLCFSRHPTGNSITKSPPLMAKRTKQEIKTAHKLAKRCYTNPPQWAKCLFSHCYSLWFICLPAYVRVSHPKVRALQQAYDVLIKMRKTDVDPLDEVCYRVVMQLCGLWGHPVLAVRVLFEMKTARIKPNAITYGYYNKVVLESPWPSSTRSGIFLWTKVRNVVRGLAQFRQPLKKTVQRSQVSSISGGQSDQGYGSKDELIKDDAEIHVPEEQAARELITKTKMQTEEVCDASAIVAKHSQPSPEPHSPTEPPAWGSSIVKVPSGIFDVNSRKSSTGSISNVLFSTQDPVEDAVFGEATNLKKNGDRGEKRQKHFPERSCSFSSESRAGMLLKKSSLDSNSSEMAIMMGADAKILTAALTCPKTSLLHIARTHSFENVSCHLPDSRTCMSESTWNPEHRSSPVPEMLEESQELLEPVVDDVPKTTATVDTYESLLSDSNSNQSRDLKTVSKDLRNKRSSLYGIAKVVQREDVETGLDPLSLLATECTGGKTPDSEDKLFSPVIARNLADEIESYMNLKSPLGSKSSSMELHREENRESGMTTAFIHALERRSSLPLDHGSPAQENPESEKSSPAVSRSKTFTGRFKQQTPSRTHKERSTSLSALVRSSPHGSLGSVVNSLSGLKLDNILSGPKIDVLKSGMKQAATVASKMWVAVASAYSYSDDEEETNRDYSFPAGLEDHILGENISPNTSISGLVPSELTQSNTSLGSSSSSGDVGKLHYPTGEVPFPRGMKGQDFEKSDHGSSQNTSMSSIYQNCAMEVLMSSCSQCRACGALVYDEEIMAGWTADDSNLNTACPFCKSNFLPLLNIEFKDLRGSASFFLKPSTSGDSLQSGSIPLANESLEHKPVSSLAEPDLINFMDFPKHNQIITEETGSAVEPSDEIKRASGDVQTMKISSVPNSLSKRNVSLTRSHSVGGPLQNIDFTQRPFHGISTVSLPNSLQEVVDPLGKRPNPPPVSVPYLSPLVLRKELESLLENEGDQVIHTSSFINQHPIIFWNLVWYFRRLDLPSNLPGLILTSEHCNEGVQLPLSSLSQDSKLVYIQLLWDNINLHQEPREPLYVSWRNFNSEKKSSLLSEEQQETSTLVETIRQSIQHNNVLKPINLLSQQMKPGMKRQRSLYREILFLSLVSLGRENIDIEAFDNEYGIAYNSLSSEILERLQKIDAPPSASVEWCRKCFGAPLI

On to “MPLFFRKRKPSEEARKRLEYQMCLAKEAGADDILDISKCELSEIPFGAFATCKVLQKKVLIVHTNHLTSLLPKSCSLLSLATIKVLDLHDNQLTALPDDLGQLTALQVLNVERNQLMQLPRSIGNLTQLQTLNVKDNKLKELPDTVGELRSLRTLNISGNEIQRLPQMLAHVRTLEMLSLDASAMVYPPREVCGAGTAAILQFLCKESGLEYYPPSQYLLPILEQDGIENSRDSPDGPTDRFSREELEWQNRFSDYEKRKEQKMLEKLEFERRLELGQREHTQLLQQSSSQKDEILQTVKEEQSRLEQGLSEHQRHLNAERQRLQEQLKQTEQNISSRIQKLLQDNQRQKKSSEILKSLENERIRMEQLMSITQEETESLRRRDVASAMQQMLTESCKNRLIQMAYESQRQNLVQQACSSMAEMDERFQQILSWQQMDQNKAISQILQESAMQKAAFEALQVKKDLMHRQIRSQIKLIETELLQLTQLELKRKSLDTESLQEMISEQRWALSSLLQQLLKEKQQREEELREILTELEAKSETRQENYWLIQYQRLLNQKPLSLKLQEEGMERQLVALLEELSAEHYLPIFAHHRLSLDLLSQMSPGDLAKVGVSEAGLQHEILRRVQELLDAARIQPELKPPMGEVVTPTAPQEPPESVRPSAPPAELEVQASECVVCLEREAQMIFLNCGHVCCCQQCCQPLRTCPLCRQDIAQRLRIYHSS [LRSAM1]”, for which the “solubility change mitosis (log2)” value in the data set on HeLa Kyoto [1] is -0.0589. For the same substance, the results for the thermal stability score in the data set on HeLa Kyoto [2] (setting [5]) and in the data set with HeLa Kyoto [2] (cell cycle stage: mitosis) were 0.0283 and 0.57, respectively. In addition, the “solubility in G1/S (log2)” value in the data set with HeLa Kyoto [3] is 0.149. Besides, the figures for the melting temperature in the data set with HeLa Kyoto [4] (cell cycle stage: G1/S) and in the data set on HeLa Kyoto [4] (cell cycle stage: mitosis) were 51 °C and 50.9 °C, respectively.

As to “MGLLSDPVRRRALARLVLRLNAPLCVLSYVAGIAWFLALVFPPLTQRTYMSENAMGSTMVEEQFAGGDRARAFARDFAAHRKKSGALPVAWLERTMRSVGLEVYTQSFSRKLPFPDETHERYMVSGTNVYGILRAPRAASTESLVLTVPCGSDSTNSQAVGLLLALAAHFRGQIYWAKDIVFLVTEHDLLGTEAWLEAYHDVNVTGMQSSPLQGRAGAIQAAVALELSSDVVTSLDVAVEGLNGQLPNLDLLNLFQTFCQKGGLLCTLQGKLQPEDWTSLDGPLQGLQTLLLMVLRQASGRPHGSHGLFLRYRVEALTLRGINSFRQYKYDLVAVGKALEGMFRKLNHLLERLHQSFFLYLLPGLSRFVSIGLYMPAVGFLLLVLGLKALELWMQLHEAGMGLEEPGGAPGPSVPLPPSQGVGLASLVAPLLISQAMGLALYVLPVLGQHVATQHFPVAEAEAVVLTLLAIYAAGLALPHNTHRVVSTQAPDRGWMALKLVALIYLALQLGCIALTNFSLGFLLATTMVPTAALAKPHGPRTLYAALLVLTSPAATLLGSLFLWRELQEAPLSLAEGWQLFLAALAQGVLEHHTYGALLFPLLSLGLYPCWLLFWNVLFWK [GPAA1]”, in the data set with HeLa Kyoto [1], the “solubility change mitosis (log2)” value is -0.232. For the same substance, the thermal stability score was 0.0135 in the data set on HeLa Kyoto [2] (setting [5]) and 0.0397 in the data set on HeLa Kyoto [2] (cell cycle stage: mitosis). Moreover, the “solubility in G1/S (log2)” value with HeLa Kyoto [3] is -0.07. The melting temperature worked out at 53.7 °C with HeLa Kyoto [4] (cell cycle stage: G1/S) and 53.4 °C in the data set on HeLa Kyoto [4] (cell cycle stage: mitosis).

For the substance DENND4C, the “solubility change mitosis (log2)” value with HeLa Kyoto [1] was -0.154. The thermal stability score with HeLa Kyoto [2] (setting [5]) is 0.187; in the data set on HeLa Kyoto [2] (cell cycle stage: mitosis), 0.554. Besides, the “solubility in G1/S (log2)” value in the data set with HeLa Kyoto [3] was 0.0629. Moreover, the melting temperature was found to be 50.6 °C with HeLa Kyoto [4] (cell cycle stage: G1/S) and 50.8 °C with HeLa Kyoto [4] (cell cycle stage: mitosis).

“MSFFNFRKIFKLGSEKKKKQYEHVKRDLNPEDFWEIIGELGDGAFGKVYKAQNKETSVLAAAKVIDTKSEEELEDYMVEIDILASCDHPNIVKLLDAFYYENNLWILIEFCAGGAVDAVMLELERPLTESQIQVVCKQTLDALNYLHDNKIIHRDLKAGNILFTLDGDIKLADFGVSAKNTRTIQRRDSFIGTPYWMAPEVVMCETSKDRPYDYKADVWSLGITLIEMAEIEPPHHELNPMRVLLKIAKSEPPTLAQPSRWSSNFKDFLKKCLEKNVDARWTTSQLLQHPFVTVDSNKPIRELIAEAKAEVTEEVEDGKEEDEEEETENSLPIPASKRASSDLSIASSEEDKLSQNACILESVSEKTERSNSEDKLNSKILNEKPTTDEPEKAVEDINEHITDAQLEAMTELHDRTAVIKENEREKRPKLENLPDTEDQETVDINSVSEGKENNIMITLETNIEHNLKSEEEKDQEKQQMFENKLIKSEEIKDTILQTVDLVSQETGEKEANIQAVDSEVGLTKEDTQEKLGEDDKTQKDVISNTSDVIGTCEAADVAQKVDEDSAEDTQSNDGKEVVEVGQKLINKPMVGPEAGGTKEVPIKEIVEMNEIEEGKNKEQAINSSENIMDINEEPGTTEGEEITESSSTEEMEVRSVVADTDQKALGSEVQDASKVTTQIDKEKKEIPVSIKKEPEVTVVSQPTEPQPVLIPSININSDSGENKEEIGSLSKTETILPPESENPKENDNDSGTGSTADTSSIDLNLSISSFLSKTKDSGSISLQETRRQKKTLKKTRKFIVDGVEVSVTTSKIVTDSDSKTEELRFLRRQELRELRFLQKEEQRAQQQLNSKLQQQREQIFRRFEQEMMSKKRQYDQEIENLEKQQKQTIERLEQEHTNRLRDEAKRIKGEQEKELSKFQNMLKNRKKEVINEVEKAPKELRKELMKRRKEELAQSQHAQEQEFVQKQQQELDGSLKKIIQQQKAELANIERECLNNKQQLMRAREAAIWELEERHLQEKHQLLKQQLKDQYFMQRHQLLKRHEKETEQMQRYNQRLIEELKNRQTQERARLPKIQRSEAKTRMAMFKKSLRINSTATPDQDRDKIKQFAAQEEKRQKNERMAQHQKHENQMRDLQLQCEANVRELHQLQNEKCHLLVEHETQKLKELDEEHSQELKEWREKLRPRKKTLEEEFARKLQEQEVFFKMTGESECLNPSTQSRISKFYPIPSLHSTGS”: the “solubility change mitosis (log2)” value with HeLa Kyoto [1] is -0.139. In addition, the thermal stability score in the data set with HeLa Kyoto [2] (setting [5]) was -0.208; in the data set with HeLa Kyoto [2] (cell cycle stage: mitosis) it was 0.991. Further, the “solubility in G1/S (log2)” value with HeLa Kyoto [3] was 0.0156. Besides, the melting temperature in the data set with HeLa Kyoto [4] (cell cycle stage: G1/S) worked out at 50.2 °C; with HeLa Kyoto [4] (cell cycle stage: mitosis) it was 49.9 °C.

For “MDKQNSQMNASHPETNLPVGYPPQYPPTAFQGPPGYSGYPGPQVSYPPPPAGHSGPGPAGFPVPNQPVYNQPVYNQPVGAAGVPWMPAPQPPLNCPPGLEYLSQIDQILIHQQIELLEVLTGFETNNKYEIKNSFGQRVYFAAEDTDCCTRNCCGPSRPFTLRIIDNMGQEVITLERPLRCSSCCCPCCLQEIEIQAPPGVPIGYVIQTWHPCLPKFTIQNEKREDVLKISGPCVVCSCCGDVDFEIKSLDEQCVVGKISKHWTGILREAFTDADNFGIQFPLDLDVKMKAVMIGACFLIDFMFFESTGSQEQKSGVW [PLSCR1]”, in the data set with HeLa Kyoto [1], the “solubility change mitosis (log2)” value is -0.349. In addition, the thermal stability score in the data set on HeLa Kyoto [2] (setting [5]) is -0.835; in the data set with HeLa Kyoto [2] (cell cycle stage: mitosis), -1.61. Moreover, the “solubility in G1/S (log2)” value in the data set with HeLa Kyoto [3] stood at 0.1. Also, the melting temperature in the data set with HeLa Kyoto [4] (cell cycle stage: G1/S) worked out at 57.7 °C; in the data set on HeLa Kyoto [4] (cell cycle stage: mitosis) it was 57.2 °C.

The values above are taken from the supplement of paper PMC5998384.
